Test [1] concerns the target Renilla luciferase (RLuc)-fused tetherin (human) (UniProt Q10589).
Test [2] has the same target. Description: FRET or BRET; BRET in HEK293T cells cotransfected with RLuc-tetherin and Vpu-eYFP (or eYFP alone); media with 10 µM BIT225 or DMSO from 6 h after transfection; cells collected 48 h post-transfection, washed in PBS; coelenterazine H 5 µM; Synergy 4 plate reader.

Sequence of UniProt Q10589 (Q10589 1-161): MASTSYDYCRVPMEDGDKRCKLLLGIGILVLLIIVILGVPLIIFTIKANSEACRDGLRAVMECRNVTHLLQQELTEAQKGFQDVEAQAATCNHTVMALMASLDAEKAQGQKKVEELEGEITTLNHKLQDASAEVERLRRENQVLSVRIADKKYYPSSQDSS

With “enhanced yellow fluorescent protein (eYFP)-fused Vpu (from UniProt P05919 1-82) (natural protein)”, in test [1], the tetherin cell surface expression (flow cytometry) in wt infected CEM-SS cells compared to uninfected populations; not affected by 10 µM BIT225 stood at 75% and the tetherin cell surface expression (flow cytometry) in wt infected SupT1-tetherin^pos cells compared to uninfected controls; not affected by 10 µM BIT225 was 70%. Also, in test [2], the BRET signal (DMSO, without BIT225) was 52 and the BRET signal (with 10 µM BIT225) came out at 51.
